Laboratory results reported in the nanobody polyreactivity screen of Harvey et al. (2022).

Experiment: yeast display, Sf9 membrane polyspecificity reagent, FACS + sequencing; frameworks hold sequencing errors
Method in brief: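 Genes from sorted yeast were amplified by colony PCR, read by MiSeq 2 × 250 sequencing and filtered on CDR length. These cells carried a synthetic nanobody library in Saccharomyces cerevisiae BJ5465 and were sorted by FACS into low and high (top ~1%) gates on anti-HA and streptavidin fluorescence. Polyreactivity is labelled according to the gate of origin.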

| Sequence | polyreactivity (PSR sort gate) |
| --- | --- |
| QVQIVESGGGLVQAGGSLRISCAASGYIFLPYAMGWYRQAPGKERELVADITSVGRTYYADSVKGRFTISRDNEKNTVYLQMNSLKPEDTAVYYCAKRHSLGYGRSRYSSGYDYWGQGTQVTVSS | high polyreactivity |
| QVQLVESGGGLVQAGGSLRLSCAASGFTFVINDMGWYRQAPGKERELVADITSGGDTYYADSVKGRFTISRDNAKNTVYLQLNSLKPEDTAVYYCAADIYPDWIYLLYGYWGQGTQVTVSS | low polyreactivity |
| QVQLVESGGGLVQAGGRLRLSCAASGSIFSRNAMGRYRQATGKESELVAAISRGGSTNYADSVKGRFTISRDNAKNTVYLQMNSLKPEDTAVYYCANVGRRSWYRWLGPLWYGGMDYWGQGTQVTVSS | low polyreactivity |
| QVQLVESGGGLVQAGGSLRLSCAASGRTFSTYAMGWYRQAPGKERELVATIRGSGSSTYYADSVKGRFTISRDNAKNTVYLQMNSLKPEDTAVYYCAKDNNRWRYLRYGSWGQGTQVTVSS | high polyreactivity |
| QVQLVESGGGLVQAGGSLRLSCAASGRTFNGYALGGYRQAPGKERELVAAICSSGGSTYYADSVKGRFTISRDNAKNTVYLQMNSLKPEDTAVYYCAARRANGFNYWGQGTQVTVSS | high polyreactivity |
| QVQLVESGGGLDQAGGSLRLSCADSGYILDRNAMGWYRHAPGKETALVAVISWGGTRTYYADSVKGRFTISRDNAKNTVYLQMISLKPEDTAVYYCARYPYYYGYAGRYDYWGQGTQVTVSS | high polyreactivity |
| QVQLVESGGGLVQAGGSLRLSCASSGFTFPYYAMGGYRQAPGKERELVAAISWGGGSTYYADSVKGRFTISRDNAKNTVYLQMNSLKPEDTAVYYCNAYEYLSAGYDYWGQGTQVTVSS | low polyreactivity |
| QVQLVESGAGLVQAGGSLRLSCAASGITFSKYAMGWYRVARGKDRELVAAISSTASTNYADSVKGRFTISRDNAKNTVYLQMNSQKPDDTAVYYCNDVLFFQLFWTYDDYWGQGSQVTVSS | low polyreactivity |
| QVQLVESGGGLVQAGGSLRLSCAASGIIIQINAMGWYRQAPGKERELVAAITIDGTTNYADSVKGRFTISRDNAKNTVYLQMNSLKPEDTAVYYCARRRSVYVWEPYQYDYWGQGTQVTVSS | low polyreactivity |
| QVQLVESGGGLVQAGGSLRLSCAATGSIYSYAMGWNRQAPGKERELVAAISRSGGRTYYADSVKGRFTISRDNAKNTVYLQMNSLKPEDTAVYYCAADGYSAKYYPGGDYWGQGTQVTVSS | high polyreactivity |
| QVQLLESGGGLVQAGGSLRLSCAASGLIMVYYTMGWYRQAPGKERELVASISKSGGRTYYADSVKGRFTISRDNAKNTVYLQMNSLKPEDTAVYYCAAQRVQYSRRDYWGQGTQVTVSS | high polyreactivity |
| QVQLVESGGGLVQAGGSLRLSCAASGSTFYVNAMGWYRQAPGTERELVAAIRSAGRTNYADSVKGRFTSSRDNAKNTVYLQMNSLKPEDTAVYYCAAEVPHWPYYGRLHDRDYWGQGTQVTVSS | low polyreactivity |
| QVQLVESGGGLVQAGGSLRLSCAASGRILYLNAMGWYRQAPGKERELVAAITRRAGSTRYADSVKGRFTISRDKAKNTVYLQMNSLKPEDTAVYYCAVAYYRNRMDYWGQGTQVTVSS | high polyreactivity |
| QVQLVESGGGLVQAGGSLRLSCAASGSTIFGYALGSYRQAPGKERELVAASSSGGSTYYADSVKGRFTISRDNAKNTVYLQMNSLKPEDTAVYYCAATRRLKRYWAQGTQVTVSS | high polyreactivity |
| QVQLVESGGGLVHAGCSLRLSCAASGFFFDYNAMGWYRQAPGKERELVAAISISGGGTYYADSVKGRFTISRDNAKNTVYLQKNSLKPEDTAVYYCAAAGIGGGGWGQGTQVTVSS | low polyreactivity |
| QVQLVESGGGLVQAGGSLRLSCAASGFIFRQYAMGWYRQAPGKEMELVAAISSSGGRTYYADSVKGRFTISRDNAKNTVYLQMNSLKPEDTAVSYCNARAWLRVEYGEGYWGQGTQVTVSS | high polyreactivity |
| QVQLVESGGGLVQAGGSLRLSCAASGSIIILYAMGWYRQAPGKERELVAAISLRGGRTYYADSVKGRFTISRDNAKNTVYLQMNSLKPEVTSVYYCATPVTNGFDYWGQGTQVTVSS | high polyreactivity |
| QVQLVESGGGLDQAGGSLRISCAASGRTFRNYAMGSYRQAPGKERELVPAISFSGGRTYYADSVKGRFTISRDNAKNTVYLQMNSLKPEDTAVYYCAKVSYYRGDGDEDYGYWGQGTQVPVSS | high polyreactivity |
| QVQLVESGGGLVQAGGSLRLSCAASGSIFGGYAMGWYRQAPGKERELVATSYADSVKGRFTISRDNAKNTVYLQMNSLKPEDTAVYYCAADPPLEGGHGYNYWGQGTQVTVSS | low polyreactivity |
| QVQLVESGGGLVQAGGSLRLSCAASGSIRYYAMGWYRQAPGKEREFVAAISRRGSSTNYADSVKGRFTISRDNAKNTVYLQMNRLKPEDTAVYYCARGLDVISYGYDYWGQGTQVTVSS | high polyreactivity |
| QVQLVESGGGLVQAGGSLRLSCAASGRIFKTYTMGWYRQAPGKERELVAVSTSVGSTYYADSVKGRFTISRDNAKNTVYLQMNSLKPEDTAVYYCAAETWVPQGYDYWGQGTQVTVSS | high polyreactivity |
| QVQLVESGGGLVQAGGSLRLSCAASGRIFYYYAMGWYRQAPGKERELVAAIRWSGGSTYYADSVKGRFTISRDNEKNTVYLQMNSLKPEDTAVYYCAADSRTNGYDYWGQGTQVTVSS | high polyreactivity |
| QDQLVESGGGLVQAGGSLRLSCAASGLIFLYPMGGYRQAPGKERELVAAISNGGSTYYADSVKGRFTISRDNAKNTVYLQMNSLKPEDTAVYFCAAKGVRRRYRPDMYYWGQGTQVTVSS | high polyreactivity |
| QVQLVESGGGLVQAGGSLRLSCAASGFTFWLYAMGSYRQAPGKEREFVAAISTSGGYTYADSVKGRFTISRDNAKNTVYLQMNSLKPEDTAVYYCAVDGLPPKDALHLYYYWGQGTQVTVSS | low polyreactivity |
| QVQLVESGGGLVQAGRSLRLSCAASGRTFARYAMGGYRQAPGKERELVAAINSGGSTNYADSVKGRFTISRDNAKNTDYLQMNSLKPEDTAVYYCAADSYWKWYIAYPYYWGQGTQVTVSS | high polyreactivity |
| QVQLVESGGGLVQAGGSLRLSCAASGFTFAWYAMGWYRPAPGKERELVAAISGSGGRTYYADSVKGRFTISRDNAKNTVYLQMNSLKPEDTAVYYFNTDRYWGKGDYWGQGTLVTVSS | high polyreactivity |
| QVQLVESGGGLVQAGGSLRLSCAASGSILTDNAMGWYRQAPGKERELVAAITSSGNTNYADSVKGRFTISRDNAKNTVYLQMKSLKPEDTAVYYCAAVSYYKHWTDWLPVGEDYWGQGTQVTVSS | low polyreactivity |
| QVQLVESGGGLVQAGGSLRLSCAASGSTFVKYTMGWYRPAPGKERELVAAIRRRGGSTYYADSVKGRFTISRDNAKNTVYLQMNSLKPEDTAVYYCATAGQGAFWGQGTQVTVSS | high polyreactivity |
| QVQHVESAGGLVQEGGSLRLSCAASGSTSVKYPMGWYRQAPGKERELVAAIRKRGDSTYYADSVKGRFTISRDNAKNTVYLQMNSLKPEDTAVYYCAAQYLRGRGYWGQGTQVTVSS | low polyreactivity |
| QVQLVESGGGLVQAGGSLRLSCAASGGTFTGYAMGWYRQAPGKERELVAAIRSRGGSTYYADSVKGRFTISRDNAKNTVYLQLNSLKPEDTAFYYCNAVSRFSYGYDYWGQGTQVSVSS | high polyreactivity |
